A short description of series [1]: Aggregation of immunoconjugates by analytical size exclusion chromatography. As to conditions: conjugate with trastuzumab (TBS); Superdex 200 5/150 GL run in PBS. The series is classed as physicochemical. The procedure: Aggregation was measured by analytical size exclusion chromatography (Superdex 200 5/150 GL run in PBS). It was observed that the extent of aggregation depends on the Linker-Payload and the DAR. […] Table 4 also indicates whether the linking group for each conjugate is stable or cleavable.

Series [2] can be described thus: Average drug loading (DAR, drug to antibody ratio) from LC/MS of reduced, deglycosylated conjugates. Particulars: conjugate with trastuzumab (TBS); average number of payload molecules per antibody. The text has this:
The immunoconjugates prepared as described above were characterized by LC/MS, as illustrated in FIG. 1 for one immunoconjugate. […] The conjugates were characterized in terms of average drug loading for a sample (DAR, drug to antibody ratio) and aggregation (expressed in %).
The DAR value is extrapolated from LC-MS data for reduced and deglycosylated samples. […] HPLC separates the antibody into light and heavy chains, and separates the heavy chain (HC) and light chain (LC) according to the number of Linker-Payload groups per chain. Mass spectral data enables identification of the component species in the mixture, e.g., LC, LC+1, LC+2, HC, HC+1, HC+2, etc. From the average loading on the LC and HC chains, the average drug to antibody ratio (DAR) can be calculated for an ADC (see FIG. 1B). The DAR for a given conjugate sample represents the average number of drug (payload) molecules attached to a tetrameric antibody containing two light chains and two heavy chains.

Data on 34 compounds can be found in patent publication US9498540B2, “Cell proliferation inhibitors and conjugates thereof” (NOVARTIS AG, priority 2013, dated 2016).

In series [1], `CC(C)(C)[C@H](c1nc(-c2cc(F)ccc2F)nn1Cc1ccccc1)N(CCCN)C(=O)N1CCC[C@H]1CO` [Compound 28] displayed an Aggregation % of 63.6%. In series [2], the DAR is reported as 3.6.

In turn, `O=C(CI)N(C[C@@H]1CNC[C@@H]1F)[C@@H](c1nc(-c2cc(F)ccc2F)cn1Cc1ccccc1)C1CCOCC1` [Compound 25] came in with an Aggregation % in series [1] of 60.8%. Besides, in series [2], the DAR came to 2.2.

As for `NCCSCC(=O)N(C[C@@H]1CNC[C@@H]1F)[C@@H](c1nc(-c2cc(F)ccc2F)cn1Cc1ccccc1)C1CCOCC1` [Compound 18], the Aggregation % in series [1] is given as 58.4%. For the same compound, the DAR in series [2] was 3.

Compound `CC(C)(C)[C@H](c1nc(-c2cc(F)ccc2F)cn1Cc1ccccc1)N(C[C@@H](F)CN)C(=O)N1CCN(S(C)(=O)=O)CC1` [Compound 21] showed an Aggregation % in series [1] of 39.7%. Also, the DAR in series [2] came out at 4.7.

Regarding `C[C@@H](CO)NC(=O)N(C[C@@H]1CNC[C@@H]1F)[C@@H](c1nc(-c2cc(F)ccc2F)cn1Cc1ccccc1)C1CCOCC1` [Compound 17], in series [1], the Aggregation % is 55%. The DAR in series [2] amounted to 5.8.

Compound `C[C@H](O)C(=O)N(CC[C@H](N)CF)[C@@H](c1nc(-c2cc(F)ccc2F)cn1Cc1ccccc1)C1CCOCC1` [Compound 46] showed an Aggregation % in series [1] of 74.1%. Besides, in series [2], the DAR is given as 4.7.

For the compound `C[C@H](O)C(=O)N(C[C@H]1CCNC1)[C@@H](c1nc(-c2cc(F)ccc2F)cn1Cc1ccccc1)C1CCOCC1` [Compound 32], the Aggregation % in series [1] is 1.4%. For the same compound, in series [2], the DAR amounted to 5.2.

`COC(=O)N(C[C@@H](F)CN)[C@@H](c1nc(-c2cc(F)ccc2F)cn1Cc1ccccc1)C(C)(C)C` [Compound 41] showed an Aggregation % in series [1] of 23.8%. For the same compound, in series [2], the DAR is listed as 4.5.

On to `CC(C)(C)[C@H](c1nc(-c2cc(F)ccc2F)cn1Cc1cccc(F)c1)N(C[C@@H]1CNC[C@@H]1F)C(=O)CCS` [Compound 67], for which the Aggregation % in series [1] is 63.2%. Moreover, in series [2], the DAR is listed as 3.4.

Compound `C[C@H](O)C(=O)N(C[C@@H]1CNC[C@@H]1F)[C@@H](c1nc(-c2cc(F)ccc2F)cn1Cc1ccccc1)C1CCOCC1` [Compound 12] showed an Aggregation % in series [1] of 4.7%. For the same compound, the DAR in series [2] came out at 5.

In series [1], `C[C@H](O)C(=O)N(C[C@@H]1CNC[C@@H]1F)[C@@H](c1nc(-c2cc(F)ccc2F)cn1Cc1cccc(F)c1)C(C)(C)C` [Compound 14] registered an Aggregation % of 1.5%. Besides, the DAR in series [2] was 2.8.

Compound `CC(C)(C)[C@H](c1nc(-c2cc(F)ccc2F)nn1Cc1ccccc1)N(CC[C@H](N)CF)C(=O)N1CCSCC1` [Compound 10] displayed an Aggregation % in series [1] of 47%. Besides, the DAR in series [2] stood at 5.

`C[C@H](O)C(=O)N(CC[C@@H](N)CF)[C@@H](c1nc(-c2cc(F)ccc2F)cn1Cc1ccccc1)C(C)(C)C` [Compound 29] came in with an Aggregation % in series [1] of 2.9%. For the same compound, the DAR in series [2] was 2.8.

`O=C([C@H]1CNCCO1)N(C[C@@H]1CNC[C@@H]1F)[C@@H](c1nc(-c2cc(F)ccc2F)cn1Cc1ccccc1)C1CCOCC1` [Compound 69]: the Aggregation % in series [1] came to 4.9%. Moreover, in series [2], the DAR was found to be 6.

In series [1], `CC(C)(C)[C@H](c1nc(-c2cc(F)ccc2F)cn1Cc1ccccc1)N(CC[C@H](N)CF)C(=O)CO` [Compound 2] displayed an Aggregation % of 43.8%. In series [2], the DAR is reported as 4.2.

As to `CC(C)(C)[C@H](c1nc(-c2cc(F)ccc2F)cn1Cc1ccccc1)N(CC[C@H](N)CF)C(=O)CO[C@@H]1O[C@H](C(=O)O)[C@@H](O)[C@H](O)[C@H]1O` [Compound 55], the Aggregation % in series [1] came to 11.5%. Also, the DAR in series [2] came to 3.8.

In turn, `CC(C)(C)[C@@H](NC[C@@H]1CNC[C@@H]1F)c1nc(-c2cc(F)ccc2F)nn1Cc1cccc(F)c1` [Compound 33] returned an Aggregation % in series [1] of 29.8%. In series [2], the DAR amounted to 6.3.

Take `CC(C)(C)[C@H](c1nc(-c2cc(F)ccc2F)cn1Cc1ccccc1)N(CC[C@@H]1COCCN1)C(=O)CO` [Compound 6]: the Aggregation % in series [1] came to 67.2%. Also, in series [2], the DAR is given as 3.

Consider `CC(C)(C)[C@H](c1nc(-c2cc(F)ccc2F)cn1Cc1ccccc1)N(CC[C@H]1COCCN1)C(=O)c1cccnc1` [Compound 36], for which the Aggregation % in series [1] turned out to be 40%. Also, the DAR in series [2] is given as 2.6.

The compound `CC(C)(C)OC(=O)N1C[C@@H](CN(C(=O)CI)[C@@H](c2nc(-c3cc(F)ccc3F)cn2Cc2cccc(F)c2)C(C)(C)C)[C@@H](F)C1` [Compound 31] displayed an Aggregation % in series [1] of 10.6%. For the same compound, the DAR in series [2] is reported as 5.8.

In turn, `CC(C)(C)[C@H](c1nc(-c2cc(F)ccc2F)cn1Cc1cccc(F)c1)N(C[C@@H]1CNC[C@@H]1F)C(=O)COCCN` [Compound 76] yielded an Aggregation % in series [1] of 48.5%. Moreover, the DAR in series [2] is given as 3.1.

Compound `CNC(=O)N(CC[C@@H](N)CF)[C@@H](c1nc(-c2cc(F)ccc2F)cn1Cc1ccccc1)C(C)(C)C` [Compound 27] registered an Aggregation % in series [1] of 12.1%. In addition, the DAR in series [2] is 3.4.

With `C[C@H](O)C(=O)N(CC[C@H](N)CF)[C@@H](c1nc(-c2cc(F)ccc2F)cn1Cc1cccc(F)c1)C(C)(C)C` [Compound 73], the Aggregation % in series [1] is on record as 60%. In series [2], the DAR turned out to be 4.5.

Compound `COC[C@@H](N)CCN(C(=O)[C@H](C)O)[C@@H](c1nc(-c2cc(F)ccc2F)cn1Cc1ccccc1)C(C)(C)C` [Compound 60] returned an Aggregation % in series [1] of 71.7%. Further, the DAR in series [2] amounted to 6.4.

On to `O=C([C@@H]1CNCCO1)N(C[C@@H]1CNC[C@@H]1F)[C@@H](c1nc(-c2cc(F)ccc2F)cn1Cc1ccccc1)C1CCOCC1` [Compound 70], for which, in series [1], the Aggregation % was 16.9%. The DAR in series [2] was determined as 6.5.

In the case of `C[C@H](O)C(=O)N(CC[C@H](N)CF)[C@@H](c1nc(-c2cc(F)ccc2F)cn1Cc1ccccc1)C1CCS(=O)(=O)CC1` [Compound 37], the Aggregation % in series [1] is recorded as 68%. Further, the DAR in series [2] came out at 5.6.

In the case of `C[C@H](O)C(=O)N(CC[C@H](N)CF)[C@@H](c1nc(-c2cc(F)ccc2F)cn1CC1(C)COC1)C(C)(C)C` [Compound 34], the Aggregation % in series [1] came out at 50.5%. The DAR in series [2] came out at 4.4.

Take `C[C@H](O)C(=O)N(C[C@H]1CNC[C@H]1F)[C@@H](c1nc(-c2cc(F)ccc2F)cn1Cc1ccccc1)C1CCOCC1` [Compound 53]: the Aggregation % in series [1] stood at 25.7%. The DAR in series [2] turned out to be 2.7.

`NCCCCCCSCC(=O)N(C[C@@H]1CNC[C@@H]1F)[C@@H](c1nc(-c2cc(F)ccc2F)cn1Cc1ccccc1)C1CCOCC1` [Compound 57] showed an Aggregation % in series [1] of 57%. Also, the DAR in series [2] is on record as 5.

With `O=C(NCCO)N(C[C@@H]1CNC[C@@H]1F)[C@@H](c1nc(-c2cc(F)ccc2F)cn1Cc1ccccc1)C1CCOCC1` [Compound 58], the Aggregation % in series [1] stood at 59.4%. Moreover, the DAR in series [2] is recorded as 5.3.

`C[C@H](O)C(=O)N(CCCN)[C@@H](c1nc(-c2cc(F)ccc2F)nn1Cc1ccccc1)C(C)(C)C` [Compound 7] yielded an Aggregation % in series [1] of 44.4%. Besides, the DAR in series [2] is reported as 2.7.

`C[C@@H]1CN(C(=O)N(CCCN)[C@@H](c2nc(-c3cc(F)ccc3F)nn2Cc2ccccc2)C(C)(C)C)C[C@H](C)O1` [Compound 3] gave an Aggregation % in series [1] of 52.5%. The DAR in series [2] is listed as 5.4.

Take `CNC(=O)N(CC[C@H]1COCCN1)[C@@H](c1nc(-c2cc(F)ccc2F)cn1Cc1ccccc1)C(C)(C)C` [Compound 4]: the Aggregation % in series [1] is given as 72.9%. Further, the DAR in series [2] is reported as 4.8.

`CC(C)(C)[C@H](c1nc(-c2cc(F)ccc2F)cn1Cc1ccccc1)N(CC[C@@H](N)CF)C(=O)c1cccnc1` [Compound 51]: the Aggregation % in series [1] is listed as 56.5%. In series [2], the DAR amounted to 5.6.
